Measured values published in patent publication US12092631B2, “Optical thromboelastography systems and methods” (The General Hospital Corporation, priority 2014, dated 2024).

Test system: human blood samples
Experiment: OTEG fibrinolysis measurement (LY15) in human blood samples spiked with tPA
Details: human blood spiked with 0.5 μg/ml tPA (14% at 0 μg/ml), three repeated measurements, FIG. 13
Description: Dilutional coagulopathy is generated by serially diluting whole blood (30-60%) with phosphate buffer saline (PBS) solution to vary MA (FIGS. 9A, 9B, 9C). Diluted blood is treated with low to high doses of fibrinogen concentrate (80-160 μL) which also varies MA. Undiluted blood is treated with unfractionated heparin to reach a maximum concentration of 1 U/ml to vary PT, R and K times. To induce fibrinolysis, blood is spiked with varying concentrations of tissue plasminogen activator (tPA) to alter % LY (FIGS. 10A, 10B). Thrombocytopenia or low platelet count is achieved by blood centrifugation, and substitution of platelet-rich with platelet-poor plasma at varying doses, followed by subsequent reconstitution. […]
FIGS. 12, 12B, 12C, 12D, and 12E illustrate the effect of tissue plasminogen activator (tPA) on blood coagulation parameters (Clot Reaction Time, Clotting Time, Clot Progression Rate, Clot Stiffness, and Fibrinolysis) measured with OTEG according to an embodiment of the invention and TEG. […]
FIG. 13 illustrates reproducibility in OTEG-based fibrinolysis measurement of the parameter LY15 in human blood samples spiked with 0-0.5 μg/ml of tPA. The concentration of tPA from 0 to 0.5 μg/ml increases the fibrinolysis from 14% to 51%, which can be successfully detected with an embodiment of the invention. […]

B1: tPA: tissue plasminogen activator, spiked into blood to activate fibrinolysis (protein, UniProt P00750 36-562, looked up)
Tissue-type plasminogen …: SYQVICRDEKTQMIYQQHQSWLRPVLRSNRVEYCWCNSGRAQCHSVPVKSCSEPRCFNGGTCQQALYFSDFVCQCPEGFAGKCCEIDTRATCYEDQGISYRGTWSTAESGAECTNWNSSALAQKPYSGRRPDAIRLGLGNHNYCRNPDRDSKPWCYVFKAGKYSSEFCSTPACSEGNSDCYFGNGSAYRGTHSLTESGASCLPWNSMILIGKVYTAQNPSAQALGLGKHNYCRNPDGDAKPWCHVLKNRRLTWEYCDVPSCSTCGLRQYSQPQFRIKGGLFADIASHPWQAAIFAKHRRSPGERFLCGGILISSCWILSAAHCFQERFPPHHLTVILGRTYRVVPGEEEQKFEVEKYIVHKEFDDDTYDNDIALLQLKSDSSRCAQESSVVRTVCLPPADLQLPDWTECELSGYGKHEALSPFYSERLKEAHVRLYPSSRCTSQHLLNRTVTDNMLCAGDTRSGGPQANLHDACQGDSGGPLVCLNDGRMTLVGIISWGLGCGQKDVPGVYTKVTNYLDWIRDNMRP
With B1 the “fibrinolysis (LY15)” value was 51%.
